± gives the uncertainty stated by the source.
B1: Ankyrin-2, residues 3571 to 3650; numbered along this chain, Q01484 (parent)
chain: ERLAYIADHLGFSWTELARELDFTEEQIHQIRIENPNSLQDQSHALLKYWLERDGKHATDTNLVECLTKINRMDIVHLME

Variants of: B1
Assay: abundance fitness (aPCA) (normalised: wild type 0, dead -1); higher = more abundant; growth selection in yeast, the domain comes from the species named
Conditions: Homo sapiens
ERLAYIADHLGFSWTELARELDFTEEQIHQIRIENPNSLQDQSHALLKYWLERDGKHATDTNLVECLTKINRMDEVHLME [I75E] gave an abundance fitness of -0.031 ± 0.11. Work on ERLAYIADHLGFSWTELARELDFTEEQIHQIRIENPNSLQDQSHALLKYWLERDGKHATDTNLVECLTKINRMDFVHLME [I75F] yielded an abundance fitness of -0.371 ± 0.34. Work on ERLAYIADHLGFSWTELARELDFTEEQIHQIRIENPNSLQDQSHALLKYWLERDGKHATDTNLVECLTKINRMDGVHLME [I75G] yielded an abundance fitness of -0.263 ± 0.087. Variant ERLAYIADHLGFSWTELARELDFTEEQIHQIRIENPNSLQDQSHALLKYWLERDGKHATDTNLVECLTKINRMDAVHLME [I75A] has an abundance fitness of 0.011 ± 0.17. ERLAYIADHLGFSWTELARELDFTEEQIHQIRIENPNSLQDQSHALLKYWLERDGKHATDTNLVECLTKINRMDCVHLME [I75C] showed an abundance fitness of -0.297 ± 0.28. ERLAYIADHLGFSWTELARELDFTEEQIHQIRIENPNSLQDQSHALLKYWLERDGKHATDTNLVECLTKINRMDMVHLME [I75M] showed an abundance fitness of 0.076 ± 0.25. Variant ERLAYIADHLGFSWTELARELDFTEEQIHQIRIENPNSLQDQSHALLKYWLERDGKHATDTNLVECLTKINRMDVVHLME [I75V] has an abundance fitness of 0.136 ± 0.27. Work on ERLAYIADHLGFSWTELARELDFTEEQIHQIRIENPNSLQDQSHALLKYWLERDGKHATDTNLVECLTKINRMDSVHLME [I75S] yielded an abundance fitness of -0.54 ± 0.45. ERLAYIADHLGFSWTELARELDFTEEQIHQIRIENPNSLQDQSHALLKYWLERDGKHATDTNLVECLTKINRMDRVHLME [I75R] showed an abundance fitness of -0.609 ± 0.21. Work on ERLAYIADHLGFSWTELARELDFTEEQIHQIRIENPNSLQDQSHALLKYWLERDGKHATDTNLVECLTKINRMDIVHLKE [M79K] yielded an abundance fitness of -0.23 ± 0.27. With ERLAYIADHLGFSWTELARELDFTEEQIHQIRIENPNSLQDQSHALLKYWLERDGKHATDTNLVECLTKINRMPIVHLME [D74P] the abundance fitness was -0.471 ± 0.058. In the case of ERLAYIADHLGFSWTELARELDFTEEQIHQIRIENPNSLQDQSHALLKYWLERDGKHATDTNLVECLTKINRMLIVHLME [D74L], the abundance fitness is reported as -0.849 ± 0.095. For ERLAYIADHLGFSWTELARELDFTEEQIHQIRIENPNSLQDQSHALLKYWLERDGKHATDTNLVECLTKINRMSIVHLME [D74S], the abundance fitness was -0.593 ± 0.067. Work on ERLAYIADHLGFSWTELARELDFTEEQIHQIRIENPNSLQDQSHALLKYWLERDGKHATDTNLVECLTKINRMNIVHLME [D74N] yielded an abundance fitness of -0.577 ± 0.17. For ERLAYIADHLGFSWTELARELDFTEEQIHQIRIENPNSLQDQSHALLKYWLERDGKHATDTNLVECLTKINRMWIVHLME [D74W], the abundance fitness was -0.573 ± 0.17. For ERLAYIADHLGFSWTELARELDFTEEQIHQIRIENPNSLQDQSHALLKYWLERDGKHATDTNLVECLTKINRMYIVHLME [D74Y], the abundance fitness was -0.862 ± 0.24. ERLAYIADHLGFSWTELARELDFTEEQIHQIRIENPNSLQDQSHALLKYWLERDGKHATDTNLVECLTKINRMGIVHLME [D74G] showed an abundance fitness of -0.678 ± 0.094. In the case of ERLAYIADHLGFSWTELARELDFTEEQIHQIRIENPNSLQDQSHALLKYWLERDGKHATDTNLVECLTKINRMHIVHLME [D74H], the abundance fitness is reported as -0.563 ± 0.15. Work on ERLAYIADHLGFSWTELARELDFTEEQIHQIRIENPNSLQDQSHALLKYWLERDGKHATDTNLVECLTKINRMEIVHLME [D74E] yielded an abundance fitness of -0.151 ± 0.11. In the case of ERLAYIADHLGFSWTELARELDFTEEQIHQIRIENPNSLQDQSHALLKYWLERDGKHATDTNLVECLTKINRMVIVHLME [D74V], the abundance fitness is reported as -0.682 ± 0.11. For ERLAYIADHLGFSWTELARELDFTEEQIHQIRIENPNSLQDQSHALLKYWLERDGKHATDTNLVECLTKINRMQIVHLME [D74Q], the abundance fitness was -0.435 ± 0.18. Work on ERLAYIADHLGFSWTELARELDFTEEQIHQIRIENPNSLQDQSHALLKYWLERDGKHATDTNLVECLTKINRMIIVHLME [D74I] yielded an abundance fitness of -0.692 ± 0.22. For ERLAYIADHLGFSWTELARELDFTEEQIHQIRIENPNSLQDQSHALLKYWLERDGKHATDTNLVECLTKINRMMIVHLME [D74M], the abundance fitness was -0.839 ± 0.26. Work on ERLAYIADHLGFSWTELARELDFTEEQIHQIRIENPNSLQDQSHALLKYWLERDGKHATDTNLVECLTKINRMAIVHLME [D74A] yielded an abundance fitness of -0.515 ± 0.059. ERLAYIADHLGFSWTELARELDFTEEQIHQIRIENPNSLQDQSHALLKYWLERDGKHATDTNLVECLTKINRMRIVHLME [D74R] gave an abundance fitness of -0.707 ± 0.11. Work on ERLAYIADHLGFSWTELARELDFTEEQIHQIRIENPNSLQDQSHALLKYWLERDGKHATDTNLVECLTKINRMKIVHLME [D74K] yielded an abundance fitness of -0.348 ± 0.19. ERLAYIADHLGFSWTELARELDFTEEQIHQIRIENPNSLQDQSHALLKYWLERDGKHATDTNLVECLTKINRMTIVHLME [D74T] showed an abundance fitness of -0.793 ± 0.12. ERLAYIADHLGFSWTELARELDFTEEQIHQIRIENPNSLQDQSHALLKYWLERDGKHATDTNLVECLTKINRMFIVHLME [D74F] showed an abundance fitness of -0.971 ± 0.28. With ERLAYIADHLGFSWTELARELDFTEEQIHQIRIENPNSLQDQSHALLKYWLERDGKHATDTNLVECLTKINRVDIVHLME [M73V] the abundance fitness was 0.035 ± 0.15. ERLAYIADHLGFSWTELARELDFTEEQIHQIRIENPNSLQDQSHALLKYWLERDGKHATDTNLVECLTKINRMDIYHLME [V76Y] gave an abundance fitness of -0.196 ± 0.12. Work on ERLAYIADHLGFSWTELARELDFTEEQIHQIRIENPNSLQDQSHALLKYWLERDGKHATDTNLVECLTKINRMDIAHLME [V76A] yielded an abundance fitness of -0.091 ± 0.16. Variant ERLAYIADHLGFSWTELARELDFTEEQIHQIRIENPNSLQDQSHALLKYWLERDGKHATDTNLVECLTKINRMDIPHLME [V76P] has an abundance fitness of -0.226 ± 0.095. In the case of ERLAYIADHLGFSWTELARELDFTEEQIHQIRIENPNSLQDQSHALLKYWLERDGKHATDTNLVECLTKINRMDIWHLME [V76W], the abundance fitness is reported as -0.05 ± 0.11. In the case of ERLAYIADHLGFSWTELARELDFTEEQIHQIRIENPNSLQDQSHALLKYWLERDGKHATDTNLVECLTKINRMDIFHLME [V76F], the abundance fitness is reported as -0.102 ± 0.11. Variant ERLAYIADHLGFSWTELARELDFTEEQIHQIRIENPNSLQDQSHALLKYWLERDGKHATDTNLVECLTKINRMDIEHLME [V76E] has an abundance fitness of -0.063 ± 0.11. ERLAYIADHLGFSWTELARELDFTEEQIHQIRIENPNSLQDQSHALLKYWLERDGKHATDTNLVECLTKINRMDIKHLME [V76K] gave an abundance fitness of -0.467 ± 0.2. Work on ERLAYIADHLGFSWTELARELDFTEEQIHQIRIENPNSLQDQSHALLKYWLERDGKHATDTNLVECLTKINRMDINHLME [V76N] yielded an abundance fitness of -0.249 ± 0.24. With ERLAYIADHLGFSWTELARELDFTEEQIHQIRIENPNSLQDQSHALLKYWLERDGKHATDTNLVECLTKINRMDICHLME [V76C] the abundance fitness was -0.027 ± 0.18.

— the Human Domainome abundance scans (Beltran et al. 2025)
